Earlier results on one substance are cited in publication PMC7674454.

For orientation: Kd means a measure of binding affinity in units of concentration.

In the data set the target is calbindin D9k EF2 EF-hand 2 (Bos taurus) (UniProt P02633). Nature of the data set: SPR.

Consider “calbindin D9k EF1 EF-hand 1 (from UniProt P02633)”, for which the Kd was 3 pM.
